Laboratory results reported in paper PMC2854499 (Nature, 2008).

Molecular target: T1, MBP-tagged WSTF C-motif (208-345) (human, UniProt Q9UIG0 208-345)
T1 sequence (looked up): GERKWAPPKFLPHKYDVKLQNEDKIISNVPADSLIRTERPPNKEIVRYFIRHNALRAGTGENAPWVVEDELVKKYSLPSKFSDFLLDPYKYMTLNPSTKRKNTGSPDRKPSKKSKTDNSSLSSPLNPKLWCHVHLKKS
Experiment: pull-down + SEC

B1: GST-tagged WSTF N-motif (1-205) (domain or fragment, human, UniProt Q9UIG0 1-205, looked up)
chain: MAPLLGRKPFPLVKPLPGEEPLFTIPHTQEAFRTREEYEARLERYSERIWTCKSTGSSQLTHKEAWEEEQEVAELLKEEFPAWYEKLVLEMVHHNTASLEKLVDTAWLEIMTKYAVGEECDFEVGKEKMLKVKIVKIHPLEKVDEEATEKKSDGACDSPSSDKENSSQIAQDHQKKETVVKEDEGRRESINDRARRSPRKLPTSL
  stoichiometry N: 1
